Article PMC2928781
Each block holds one substance with its values, some of them ahead of it.

Columns and labels:
Assay in all cases: two-hybrid; L40 strain co-transformed with pGAD424 (prey) and pBTM116 (target) constructs; LACZ reporter read by ONPG assay (Miller units); each mutant against the wild-type MSH4 or MSH5 partner; three independent co-transformants
Msh5 (S. cerevisiae) = Msh5 (S. cerevisiae) (UniProt Q12175)
[1] = target: Msh5 D539A (S. cerevisiae) (UniProt Q12175)
[2] = target: Msh5 D76A (S. cerevisiae) (UniProt Q12175)
[3] = target: Msh5 W298A (S. cerevisiae) (UniProt Q12175)
[4] = target: Msh5 D433A (S. cerevisiae) (UniProt Q12175)
[5] = target: Msh5 R436A (S. cerevisiae) (UniProt Q12175)
[6] = target: Msh5 N182A (S. cerevisiae) (UniProt Q12175)
[7] = target: Msh5 R685W (S. cerevisiae) (UniProt Q12175)
[8] = target: Msh5 Y480A (S. cerevisiae) (UniProt Q12175)
[9] = target: Msh5 D532A (S. cerevisiae) (UniProt Q12175)
[10] = target: Msh5 G648A (S. cerevisiae) (UniProt Q12175)
[11] = target: Msh5 V488A (S. cerevisiae) (UniProt Q12175)
[12] = target: Msh5 Y661A (S. cerevisiae) (UniProt Q12175)
[13] = target: Msh5 D250A (S. cerevisiae) (UniProt Q12175)
[14] = target: Msh5 D680A (S. cerevisiae) (UniProt Q12175)
[15] = target: Msh5 S416A (S. cerevisiae) (UniProt Q12175)
[16] = target: Msh5 E45A (S. cerevisiae) (UniProt Q12175)
[17] = target: Msh5 D527A (S. cerevisiae) (UniProt Q12175)

Sequence of Msh4 (P40965 whole entry): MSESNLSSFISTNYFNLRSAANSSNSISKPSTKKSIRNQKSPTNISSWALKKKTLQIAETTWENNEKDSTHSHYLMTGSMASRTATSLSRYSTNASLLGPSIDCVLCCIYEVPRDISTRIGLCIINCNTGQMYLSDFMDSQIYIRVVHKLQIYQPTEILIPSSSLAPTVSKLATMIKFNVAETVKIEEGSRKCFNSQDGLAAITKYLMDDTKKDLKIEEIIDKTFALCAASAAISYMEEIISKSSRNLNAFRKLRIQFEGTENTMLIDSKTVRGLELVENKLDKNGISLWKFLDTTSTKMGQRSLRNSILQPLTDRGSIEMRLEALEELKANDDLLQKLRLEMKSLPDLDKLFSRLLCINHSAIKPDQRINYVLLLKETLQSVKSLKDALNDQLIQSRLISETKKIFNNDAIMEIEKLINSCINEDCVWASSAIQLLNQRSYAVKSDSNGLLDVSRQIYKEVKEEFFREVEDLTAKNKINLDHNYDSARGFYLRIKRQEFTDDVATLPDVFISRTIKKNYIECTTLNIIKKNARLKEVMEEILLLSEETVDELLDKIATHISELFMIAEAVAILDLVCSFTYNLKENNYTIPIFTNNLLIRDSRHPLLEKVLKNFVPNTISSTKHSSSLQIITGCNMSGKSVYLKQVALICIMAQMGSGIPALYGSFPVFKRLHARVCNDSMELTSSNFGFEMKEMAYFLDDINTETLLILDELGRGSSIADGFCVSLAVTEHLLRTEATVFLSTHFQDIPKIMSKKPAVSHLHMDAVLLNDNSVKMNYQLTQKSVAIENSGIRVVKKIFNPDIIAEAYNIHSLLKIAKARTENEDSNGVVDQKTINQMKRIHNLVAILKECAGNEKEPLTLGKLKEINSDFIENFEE

Substance: Msh4 R676W (from UniProt P40965 1-878) (natural protein)
- β-galactosidase activity (two-hybrid) (Msh5 (S. cerevisiae)): 96 Miller units

Substance: Msh4 G639A (from UniProt P40965 1-878) (natural protein)
- β-galactosidase activity (two-hybrid) (Msh5 (S. cerevisiae)): 11.6 Miller units

Substance: Msh4 F491A (from UniProt P40965 1-878) (natural protein)
- β-galactosidase activity (two-hybrid) (Msh5 (S. cerevisiae)): 2.5 Miller units

Continued, values first:

- β-galactosidase activity (two-hybrid) (Msh5 (S. cerevisiae)): 1.9 Miller units
Substance: Msh4 R456A (from UniProt P40965 1-878) (natural protein)

- β-galactosidase activity (two-hybrid) (Msh5 (S. cerevisiae)): 1.5 Miller units
Substance: Msh4 D139A (from UniProt P40965 1-878) (natural protein)

- β-galactosidase activity (two-hybrid) (Msh5 (S. cerevisiae)): 1.6 Miller units
Substance: Msh4 L493A (from UniProt P40965 1-878) (natural protein)

- β-galactosidase activity (two-hybrid) [1]: 89 Miller units
- β-galactosidase activity (two-hybrid) [2]: 1.3 Miller units
- β-galactosidase activity (two-hybrid) [3]: 1.4 Miller units
- β-galactosidase activity (two-hybrid) [4]: 1.4 Miller units
- β-galactosidase activity (two-hybrid) [5]: 1.3 Miller units
- β-galactosidase activity (two-hybrid) [6]: 63 Miller units
- β-galactosidase activity (two-hybrid) [7]: 46 Miller units
- β-galactosidase activity (two-hybrid) [8]: 2.2 Miller units
- β-galactosidase activity (two-hybrid) [9]: 3.7 Miller units
- β-galactosidase activity (two-hybrid) [10]: 45 Miller units
- β-galactosidase activity (two-hybrid) [11]: 1.4 Miller units
- β-galactosidase activity (two-hybrid) (Msh5 (S. cerevisiae)): 54 Miller units
- β-galactosidase activity (two-hybrid) [12]: 1.2 Miller units
- β-galactosidase activity (two-hybrid) [13]: 6.2 Miller units
- β-galactosidase activity (two-hybrid) [14]: 1.4 Miller units
- β-galactosidase activity (two-hybrid) [15]: 3 Miller units
- β-galactosidase activity (two-hybrid) [16]: 62 Miller units
- β-galactosidase activity (two-hybrid) [17]: 1.9 Miller units
Substance: Msh4 (from UniProt P40965 1-878) (natural protein)

- β-galactosidase activity (two-hybrid) (Msh5 (S. cerevisiae)): 70 Miller units
Substance: Msh4 E276A (from UniProt P40965 1-878) (natural protein)
